Starred links: 1 amine or outer side, 2 acyl side, 3 side chain; linkers in the order of their positions; H or OH if unused. Non-standard residues stand in square brackets, D forms with d. Residues, ends and D or L forms follow the SMILES beside them. No end group written: not given here. Phe(2-(4-CF3-phenyl)) = O=C([C@H](Cc1ccccc1-c1ccc(C(F)(F)F)cc1)N[*:1])[*:2]; Phe(3-vinyl) = C=Cc1cccc(C[C@H](N[*:1])C(=O)[*:2])c1; Phe(4-vinyl) = C=Cc1ccc(C[C@H](N[*:1])C(=O)[*:2])cc1; Phe(2-vinyl) = C=Cc1ccccc1C[C@H](N[*:1])C(=O)[*:2]; Phe(3-Ph) = N[C@@H](Cc1cccc(-c2ccccc2)c1)C(=O)O; Phe(2-Ph) = N[C@@H](Cc1ccccc1-c1ccccc1)C(=O)O; Bip = N[C@@H](Cc1ccc(-c2ccccc2)cc1)C(=O)O; Dmt = Cc1cc(O)cc(C)c1C[C@H](N)C(=O)O
B1: Dmt-D-Arg-Phe(3-vinyl)-Gly-NH2 (peptide)
peptide: [Dmt][dR][Phe(3-vinyl)]G-NH2
modifications: N-terminus assumed
SMILES: C=Cc1cccc(C[C@H](NC(=O)[C@@H](CCCNC(=N)N)NC(=O)[C@@H](N)Cc2c(C)cc(O)cc2C)C(=O)NCC(N)=O)c1
B2: Dmt-D-Ala-Phe(2-phenyl)-Gly-NH2 (peptide)
peptide: [Dmt][dA][Phe(2-Ph)]G-NH2
modifications: N-terminus assumed
SMILES: Cc1cc(O)cc(C)c1C[C@H](N)C(=O)N[C@H](C)C(=O)N[C@@H](Cc1ccccc1-c1ccccc1)C(=O)NCC(N)=O
B3: Dmt-D-Arg-Phe-Gly-NH2 (peptide)
peptide: [Dmt][dR]FG-NH2
modifications: N-terminus assumed
SMILES: Cc1cc(O)cc(C)c1C[C@H](N)C(=O)N[C@H](CCCNC(=N)N)C(=O)N[C@@H](Cc1ccccc1)C(=O)NCC(N)=O
B4: Dmt-D-Arg-Phe(2-(4-CF3-phenyl))-Gly-NH2 (peptide)
peptide: [Dmt][dR][Phe(2-(4-CF3-phenyl))]G-NH2
modifications: N-terminus assumed
SMILES: Cc1cc(O)cc(C)c1C[C@H](N)C(=O)N[C@H](CCCNC(=N)N)C(=O)N[C@@H](Cc1ccccc1-c1ccc(C(F)(F)F)cc1)C(=O)NCC(N)=O
B5: Dmt-D-Ala-Phe(2-vinyl)-Gly-NH2 (peptide)
peptide: [Dmt][dA][Phe(2-vinyl)]G-NH2
modifications: N-terminus assumed
SMILES: C=Cc1ccccc1C[C@H](NC(=O)[C@@H](C)NC(=O)[C@@H](N)Cc1c(C)cc(O)cc1C)C(=O)NCC(N)=O
B6: Dmt-D-Arg-Phe(4-vinyl)-Gly-NH2 (peptide)
peptide: [Dmt][dR][Phe(4-vinyl)]G-NH2
modifications: N-terminus assumed
SMILES: C=Cc1ccc(C[C@H](NC(=O)[C@@H](CCCNC(=N)N)NC(=O)[C@@H](N)Cc2c(C)cc(O)cc2C)C(=O)NCC(N)=O)cc1
B7: Dmt-D-Arg-Phe(3-phenyl)-Gly-NH2 (peptide)
peptide: [Dmt][dR][Phe(3-Ph)]G-NH2
modifications: N-terminus assumed
SMILES: Cc1cc(O)cc(C)c1C[C@H](N)C(=O)N[C@H](CCCNC(=N)N)C(=O)N[C@@H](Cc1cccc(-c2ccccc2)c1)C(=O)NCC(N)=O

Tests used:
[1] = tested on: guinea pig ileum (GPI), MOP; conditions: in vitro
δ opioid receptor [2] = molecular target: δ opioid receptor (UniProt P41143)
μ opioid receptor [3] = molecular target: μ opioid receptor (UniProt P35372)
δ opioid receptor [4] = molecular target: δ opioid receptor (UniProt P41143); remark: listed apart in the source
δ opioid receptor [5] = molecular target: δ opioid receptor (UniProt P41143); assay: radioligand binding
μ opioid receptor [6] = molecular target: μ opioid receptor (UniProt P35372); assay: radioligand binding

Molecule | Functional character in GPI assay [1] | EPAC DOP EC50 (EPAC cAMP BRET-based biosensor assay) (δ opioid receptor [2]) | IC50 in the guinea pig ileum (GPI) assay (μ opioid receptor [3]) | IC50 in the mouse vas deferens (MVD) assay (δ opioid receptor [4]) | IC50 (δ opioid receptor [5]) | IC50 (μ opioid receptor [6]) | IC40 (partial agonist) in the mouse vas deferens (MVD) assay (δ opioid receptor [4])
Cc1cc(O)cc(C)c1C[C@H](N)C(=O)N[C@H](CCCNC(=N)N)C(=O)N[C@@H](Cc1ccc(-c2ccccc2)cc1)C(=O)NCC(N)=O [Compound 1, Dmt-D-Arg-Phe(4-phenyl)-Gly-NH2] (H-[Dmt][dR][Bip]G-NH2) | μ-opioid antagonism |  |  |  |  |  | 
Cc1cc(O)cc(C)c1C[C@H](N)C(=O)N[C@H](CCCNC(=N)N)C(=O)N[C@@H](Cc1ccc(-c2ccsc2)cc1)C(=O)NCC(N)=O [Compound 4, Dmt-D-Arg-Phe(4-(3-thienyl))-Gly-NH2] | μ-opioid antagonism |  |  |  |  |  | 
DAMGO (peptide) |  | 49 nM | 28.3 nM |  |  |  | 
B1 |  |  | 1.43 nM | 9.74 nM | 165 nM | 0.46 nM | 
B2 |  |  | 1.6 nM | 2.6 nM | 19.8 nM | 0.35 nM | 
B3 |  | 1.13 nM | 2.26 nM | 0.316 nM |  |  | 
B4 |  | 26.8 nM | 1.26 nM | 1.78 nM |  |  | 
B5 |  |  | 1.18 nM | 2.81 nM | 8 nM | 0.25 nM | 
B6 |  |  | 24.1 nM | 430 nM | 1420 nM | 1.82 nM | 
B7 |  |  | 61.7 nM |  | 269 nM | 0.85 nM | 117 nM
